Measurements reported in patent publication US20220324970A1 (Janssen / Centocor, published 2022).
Like-named read-outs stand apart in the source and are kept apart here.

Experiments:
[1] = biological target: T1, human pIgR, full-length, on cells (human, UniProt P01833 19-764); test: cell-based or functional assay
[2] = biological target: T1, human pIgR, full-length, on cells; test: flow cytometry on MDCK-hpIgR cells
[3] = biological target: T2, human pIgR extracellular domain (ECD) (human, UniProt P01833 19-638); test: BLI (Octet), VHH-mono-Fc and hpIgR ectodomain
T2 construct: also called hpIgR ECD
Target sequence in this assay (P01833 other isoform, or with tags, fused parts or gaps): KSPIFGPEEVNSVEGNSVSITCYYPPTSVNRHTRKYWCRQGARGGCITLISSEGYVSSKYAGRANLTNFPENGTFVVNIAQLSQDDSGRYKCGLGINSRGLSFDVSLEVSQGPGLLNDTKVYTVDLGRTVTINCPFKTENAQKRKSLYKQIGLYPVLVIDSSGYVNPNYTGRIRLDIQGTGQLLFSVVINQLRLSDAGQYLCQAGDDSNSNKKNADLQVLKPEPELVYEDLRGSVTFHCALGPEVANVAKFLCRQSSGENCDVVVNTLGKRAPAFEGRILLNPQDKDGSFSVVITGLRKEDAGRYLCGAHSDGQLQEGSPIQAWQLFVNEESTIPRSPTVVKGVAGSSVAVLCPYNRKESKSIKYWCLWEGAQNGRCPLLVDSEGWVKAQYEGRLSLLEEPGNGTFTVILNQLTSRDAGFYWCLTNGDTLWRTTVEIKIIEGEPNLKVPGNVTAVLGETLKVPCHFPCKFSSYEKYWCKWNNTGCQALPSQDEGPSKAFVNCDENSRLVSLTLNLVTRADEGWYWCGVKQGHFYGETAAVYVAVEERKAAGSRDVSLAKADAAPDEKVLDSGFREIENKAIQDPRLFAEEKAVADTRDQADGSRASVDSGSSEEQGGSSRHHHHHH

[4] = biological target: T2, human pIgR extracellular domain (ECD); test: BLI; summary table, repeats Table 1
Target sequence in this assay (P01833 other isoform, or with tags, fused parts or gaps): as above

[5] = biological target: T1, human pIgR, full-length, on cells; test: flow cytometry on MDCK-hpIgR cells; summary table, repeats Table 1
[6] = biological target: T2, human pIgR extracellular domain (ECD); test: BLI (Octet RED384), 1:1 fit, 25 C, PBS; column kdis
Target sequence in this assay (P01833 other isoform, or with tags, fused parts or gaps): as above

[7] = biological target: T3, human pIgR extracellular domain 4-domain 5 (D4-D5) (human, UniProt P01833 350-565); test: as above
T3 construct: HIS-tagged construct made in HEK293 cells; also called hpIgR domains 4-5
T3 chain: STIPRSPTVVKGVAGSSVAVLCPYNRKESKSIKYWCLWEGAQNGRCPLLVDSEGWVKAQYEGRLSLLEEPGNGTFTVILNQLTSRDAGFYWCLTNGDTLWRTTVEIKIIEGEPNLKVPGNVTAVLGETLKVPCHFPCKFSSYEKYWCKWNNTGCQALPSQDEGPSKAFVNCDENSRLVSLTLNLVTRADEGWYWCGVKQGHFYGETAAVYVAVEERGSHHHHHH

[8] = biological target: T1, human pIgR, full-length, on cells; test: cell-based or functional assay; remark: listed apart in the source
[9] = biological target: T4, human pIgR extracellular domain 1-domain 2 (D1-D2) (human, UniProt P01833 19-240); test: ECL (MSD) heat map, HIS-tagged construct captured via anti-HIS, anti-human-Fc detection
T4 construct: HIS-tagged construct made in HEK293 cells

hpIgR_D2-D3 [10] = biological target: T5, hpIgR_D2-D3; test: as above
T5 construct: HIS-tagged construct from HEK293 cells; also called human pIgR extracellular domain 2-domain 3 (D2-D3); hD2-D3
T5 HIS-tagged domain construct: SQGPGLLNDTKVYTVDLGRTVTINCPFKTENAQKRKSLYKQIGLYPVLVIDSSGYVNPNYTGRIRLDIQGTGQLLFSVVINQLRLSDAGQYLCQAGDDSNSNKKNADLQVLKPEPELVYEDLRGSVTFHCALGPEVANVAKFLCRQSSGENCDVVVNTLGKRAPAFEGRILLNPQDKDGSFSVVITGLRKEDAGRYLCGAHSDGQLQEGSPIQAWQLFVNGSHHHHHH

[11] = biological target: T6, human pIgR extracellular domain 1 (D1) (human, UniProt P01833 19-127); test: as above
T6 construct: HIS-tagged construct made in HEK293 cells; also called hpIgR domain-1

[12] = biological target: T2, human pIgR extracellular domain (ECD); test: ECL (MSD), hpIgR-ECD coated, anti-VHH detection
Target sequence in this assay (P01833 other isoform, or with tags, fused parts or gaps): as the sequence (P01833 other isoform, or with tags, fused parts or gaps) above
Protocol: (§1) To check whether VHH recognizes a buried epitope on pIgR, EC₅₀ values were measured for VHH-mono-Fc molecules binding to hpIgR-ECD protein by electrochemiluminescence using two different detection antibodies, an anti-Fc antibody and an anti-VHH antibody. pIgR ECD (10 μg/ml in PBS) was coated on high-bind MSD plates for 2 hours at RT with 1000 rpm, incubated with blocking buffer for 1 hour at RT, incubated with VHH-mono-Fc molecules (increasing concentrations in PBS) for 2 hours at RT with 1000 rpm, washed 3× with PBT, incubated with ruthenylated secondary antibody (2 μg/ml in PBS) for 1 hour at RT with 1000 rpm, washed 3× with PBT and read plates in 40 ul reading buffer using the MSD imager. EC50 was calculated by fitting log VHH concentration versus log ECLU in Prism (Graphpad). The increase in EC₅₀ (>50-fold) due to anti-VHH detection was used as a measure to determine whether VHH recognized buried epitope on pIgR.

[13] = biological target: T2, human pIgR extracellular domain (ECD); test: BLI; summary table, repeats Table 1; remark: listed apart in the source
Target sequence in this assay (P01833 other isoform, or with tags, fused parts or gaps): as the sequence (P01833 other isoform, or with tags, fused parts or gaps) above

[14] = biological target: T2, human pIgR extracellular domain (ECD); test: ECL (MSD), anti-VHH detection against anti-Fc detection
Target sequence in this assay (P01833 other isoform, or with tags, fused parts or gaps): as the sequence (P01833 other isoform, or with tags, fused parts or gaps) above
Protocol: as §1

[15] = biological target: T1, human pIgR, full-length, on cells; test: flow cytometry on MDCK-hpIgR cells; summary table, repeats Table 1; remark: listed apart in the source
[16] = biological target: T2, human pIgR extracellular domain (ECD); test: ECL (MSD), hpIgR-ECD coated, anti-Fc detection
Protocol: as §1

[17] = biological target: T1, human pIgR, full-length, on cells; test: cell-based or functional assay; remark: listed apart in the source
[18] = biological target: T7, human pIgR extracellular domain 2 (D2) (human, UniProt P01833 128-242); test: ECL (MSD) heat map, HIS-tagged construct captured via anti-HIS, anti-human-Fc detection
T7 construct: HIS-tagged construct made in HEK293 cells; also called hpIgR domain 2

hpIgR_D3 [19] = biological target: T8, hpIgR_D3; test: as above
T8 construct: HIS-tagged construct from HEK293 cells; also called human pIgR extracellular domain 3 (D3); hD3
T8 HIS-tagged domain construct: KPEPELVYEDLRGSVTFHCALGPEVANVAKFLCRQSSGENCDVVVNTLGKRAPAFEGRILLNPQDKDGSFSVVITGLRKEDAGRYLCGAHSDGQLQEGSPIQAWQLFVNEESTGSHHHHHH

[20] = biological target: T2, human pIgR extracellular domain (ECD); test: BLI (Octet RED384), 1:1 fit, 25 C, PBS
[21] = biological target: T3, human pIgR extracellular domain …; test: BLI (Octet RED384), 1:1 fit, 25 C, PBS
[22] = biological target: T3, human pIgR extracellular domain …; test: ECL (MSD) heat map, HIS-tagged construct captured via anti-HIS, anti-human-Fc detection
[23] = biological target: T7, human pIgR extracellular domain 2 (D2); test: as above; remark: listed apart in the source
[24] = biological target: T9, human pIgR extracellular domain 5 (D5) (human, UniProt P01833 460-565); test: as above
T9 construct: HIS-tagged construct made in HEK293 cells; also called hpIgR domain 5

[25] = biological target: T6, human pIgR extracellular domain 1 (D1); test: as above; remark: listed apart in the source
[26] = biological target: T3, human pIgR extracellular domain …; test: BLI: IgA binding to immobilized HIS-tagged hD4-D5; sheet says 'IgA binds hD4-D5 weakly'
[27] = biological target: T9, human pIgR extracellular domain 5 (D5); test: BLI response heat map (0-1.0 nm), HIS-tagged pIgR construct immobilized
hpIgR_D2-D3 [28] = biological target: T5, hpIgR_D2-D3; test: as above
[29] = biological target: T10, hpIgR domain-1 with teleost fish CDR2 (hD1 tCDR2) (human, UniProt P01833 19-127, limits assumed); test: as above
T10 construct: CDR-swapped hpIgR domain-1 mutant, HIS-tagged, made in HEK293 cells; not shown: HIS tag
T10 chain: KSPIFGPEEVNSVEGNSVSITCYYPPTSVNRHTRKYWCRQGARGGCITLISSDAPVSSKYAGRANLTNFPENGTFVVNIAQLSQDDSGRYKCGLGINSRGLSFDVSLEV

hD3-D4 = biological target: T11, hD3-D4 (human, UniProt P01833); test: as above
T11 construct: HIS-tagged two-domain construct; also called human pIgR extracellular domain 3-domain 4 (D3-D4)

[30] = biological target: T7, human pIgR extracellular domain 2 (D2); test: as above
[31] = biological target: T12, hpIgR domain-1 with teleost fish CDR1 (hD1 tCDR1) (human, UniProt P01833 19-127, limits assumed); test: as above
T12 construct: CDR-swapped hpIgR domain-1 mutant, HIS-tagged, made in HEK293 cells; not shown: HIS tag

hpIgR_D3 [32] = biological target: T8, hpIgR_D3; test: as above
[33] = biological target: T3, human pIgR extracellular domain …; test: BLI: IgA binding to immobilized HIS-tagged hD4-D5

T1 sequence (P01833 19-764): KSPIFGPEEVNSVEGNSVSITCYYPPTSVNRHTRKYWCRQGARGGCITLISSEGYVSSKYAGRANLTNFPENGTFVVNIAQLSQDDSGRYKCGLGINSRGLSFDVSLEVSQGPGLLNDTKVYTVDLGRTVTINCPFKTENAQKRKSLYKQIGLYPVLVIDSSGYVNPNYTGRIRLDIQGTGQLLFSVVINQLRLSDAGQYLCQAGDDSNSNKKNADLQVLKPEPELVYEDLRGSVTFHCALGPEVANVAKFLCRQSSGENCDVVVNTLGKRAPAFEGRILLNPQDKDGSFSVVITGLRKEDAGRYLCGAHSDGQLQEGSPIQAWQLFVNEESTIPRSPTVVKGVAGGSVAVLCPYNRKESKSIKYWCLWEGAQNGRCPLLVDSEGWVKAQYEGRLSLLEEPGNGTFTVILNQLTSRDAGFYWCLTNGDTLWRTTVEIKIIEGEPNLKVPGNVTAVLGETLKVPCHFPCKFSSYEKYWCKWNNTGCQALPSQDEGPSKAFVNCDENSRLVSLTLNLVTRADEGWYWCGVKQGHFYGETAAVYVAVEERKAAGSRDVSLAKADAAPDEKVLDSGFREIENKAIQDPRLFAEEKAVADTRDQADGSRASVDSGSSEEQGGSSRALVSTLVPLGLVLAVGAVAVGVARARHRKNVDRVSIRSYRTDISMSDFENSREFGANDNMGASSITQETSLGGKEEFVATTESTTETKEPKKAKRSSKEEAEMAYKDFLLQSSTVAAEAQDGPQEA
T11 sequence (P01833 240-459 limits assumed): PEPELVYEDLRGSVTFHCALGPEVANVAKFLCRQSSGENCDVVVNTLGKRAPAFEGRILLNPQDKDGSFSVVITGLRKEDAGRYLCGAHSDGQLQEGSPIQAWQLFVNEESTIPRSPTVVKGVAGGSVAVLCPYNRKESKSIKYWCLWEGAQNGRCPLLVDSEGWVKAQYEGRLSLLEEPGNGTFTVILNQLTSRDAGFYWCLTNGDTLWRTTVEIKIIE

B1: VHH12-linker-mono-Fc protein (Fc fusion)
chain: QVQLVETGGGLVQAGDSLRLSCAASGRTLSFNTYAMGWFRQAPGKEREFVASITWNGGSTSYADSVKGRFTITRDNAKNTATLRMNSLQPDDTAVYYCAAARYYVSGTYFPANYWGQGTQVTVSSEPKTPKPQPQPQLQPQPNPTTESKSPKSPAPELLGGPSVFLFPPKPKDTLMISRTPEVTCVVVDVSHEDPEVKFNWYVDGVEVHNAKTKPREEQYNSTYRVVSVLTVLHQDWLNGKEYKCKVSNKALPAPIEKTISKAKGQPREPQVYTKPPSREEMTKNQVSLSCLVKGFYPSDIAVEWESNGQPENNYKTTVPVLDSDGSFRLASYLTVDKSRWQQGNVFSCSVMHEALHNHYTQKSLSLSPGK
notes: made in CHO cells; also called VHH12-mono-Fc; hpIgR_266
For. Trans. (Fold Incr.) [1]: 29.5 fold
Rev. Trans (Fold Incr.) [1]: 11.7 fold
EC50 [2]: 4.6 nM
Kd [3]: 34 nM
Kd [4]: 34 nM
EC50 [5]: 4.6 nM
koff [6]: 0.00166 s⁻¹
koff [7]: 0.00281 s⁻¹
Transcytosis (Fold Incr.) [8]: 38.6 fold
binding result [9]: no binding (tested: 100 ug/ml (single concentration))
binding result (hpIgR_D2-D3 [10]): no binding (tested: 100 ug/ml (single concentration))
binding result [11]: no binding (tested: 100 ug/ml (single concentration))
EC50 [12]: 0.2 nM
Kd [13]: 34 nM
Fold change in EC50 [14]: 0.4 fold
EC50 [15]: 4.6 nM
EC50 [16]: 0.5 nM
increase in their apical concentration relative to control VHH (MDCK-hpIgR monolayers) [17]: > 10 fold
binding result [18]: no binding (tested: 100 ug/ml (single concentration))
binding result (hpIgR_D3 [19]): no binding (tested: 100 ug/ml (single concentration))
Kd [20]: 43.3 nM
kon [20]: 38300 M⁻¹ s⁻¹
Kd [21]: 73.1 nM
kon [21]: 38500 M⁻¹ s⁻¹

B2: VHH1 (Fc fusion)
VHH-linker-mono-Fc chain: QVQLVESGGGLVQAGGSLKLACAAPGLTFSSYRMGWFRQAPGQEREFVAAIDWNGRGTYYRYYADSVKGRSTISRDNAKNTMYLQMNSLKPEDTAVYYCAAGSIDLNWYGGMDYWGQGTQVTVSSEPKTPKPQPQPQLQPQPNPTTESKSPKSPAPELLGGPSVFLFPPKPKDTLMISRTPEVTCVVVDVSHEDPEVKFNWYVDGVEVHNAKTKPREEQYNSTYRVVSVLTVLHQDWLNGKEYKCKVSNKALPAPIEKTISKAKGQPREPQVYTKPPSREEMTKNQVSLSCLVKGFYPSDIAVEWESNGQPENNYKTTVPVLDSDGSFRLASYLTVDKSRWQQGNVFSCSVMHEALHNHYTQKSLSLSPGK
notes: Control VHH; also called mpIgR_011; VHH1-linker-mono-Fc protein
binding result [9]: no binding (tested: 100 ug/ml (single concentration))
binding result [22]: no binding (tested: 100 ug/ml (single concentration))
binding result [23]: no binding (tested: 100 ug/ml (single concentration))
binding result [24]: no binding (tested: 100 ug/ml (single concentration))
binding result [25]: no binding (tested: 100 ug/ml (single concentration))

B3: recombinant dimeric IgA2 construct (antibody)
heavy: QVQLVQSGAEVKKPGSSVKVSCKSSGGTSNNYAISWVRQAPGQGLDWMGGISPIFGSTAYAQKFQGRVTISADIFSNTAYMELNSLTSEDTAVYFCARHGNYYYYSGMDVWGQGTTVTVSSASPTSPKVFPLSLDSTPQDGNVVVACLVQGFFPQEPLSVTWSESGQNVTARNFPPSQDASGDLYTTSSQLTLPATQCPDGKSVTCHVKHYTNPSQDVTVPCPVPPPPPCCHPRLSLHRPALEDLLLGSEANLTCTLTGLRDASGATFTWTPSSGKSAVQGPPERDLCGCYSVSSVLPGCAQPWNHGETFTCTAAHPELKTPLTANITKSGNTFRPEVHLLPPPSEELALNELVTLTCLARGFSPKDVLVRWLQGSQELPREKYLTWASRQEPSQGTTTFAVTSILRVAAEDWKKGDTFSCMVGHEALPLAFTQKTIDRLAGKPTHVNVSVVMAEVDGTCY
light: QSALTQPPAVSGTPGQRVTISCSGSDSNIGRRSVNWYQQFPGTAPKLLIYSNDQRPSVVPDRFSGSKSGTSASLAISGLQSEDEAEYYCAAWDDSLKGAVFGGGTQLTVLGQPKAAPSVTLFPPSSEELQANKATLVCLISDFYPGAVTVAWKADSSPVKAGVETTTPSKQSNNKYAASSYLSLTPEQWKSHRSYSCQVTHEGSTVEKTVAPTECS
chain: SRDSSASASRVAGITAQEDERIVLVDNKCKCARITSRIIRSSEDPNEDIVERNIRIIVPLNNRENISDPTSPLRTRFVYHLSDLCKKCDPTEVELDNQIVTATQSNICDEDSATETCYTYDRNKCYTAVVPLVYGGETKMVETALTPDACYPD
notes: No sentence says outright that they are the dIgA2 of the assays; also called dIgA2; dIgA
Kd [26]: 1000 nM
binding result [27]: no binding
binding result (hpIgR_D2-D3 [28]): no binding
binding result [29]: no binding
binding result (hD3-D4): no binding
binding result [30]: no binding
binding result [31]: no binding
binding result (hpIgR_D3 [32]): no binding
koff [33]: 0.0801 s⁻¹
kon [33]: 78400 M⁻¹ s⁻¹
